Measurements published in the supplement of paper PMC7877785.
± gives the uncertainty stated by the source.

Assay: self-splicing fitness, log relative to wild type (ln ratio); higher = more splicing; Tetrahymena group I intron in knt gene, E. coli kanamycin selection, DiMSum; sequences stand for … in CUCUCU…GGAGGGAAAAGUUAUCAGGCAUGCACCUGGUAGCUAGUCUUUAAACCAAUAGAUUGCAUCGGUUUAAAAGGCAAGACCGUCAAAUUGCGGGAAAGGGGUCAACAGCCGUUCAGUACCAAGUCUCAGGGGAAACUUUGAGAUGGCCUUGCAAAGGGUAUGGUAAUAAGCUGACGGACAUGGUCCUAACCACGCAGCCAAGUCCUAAGUCAACAGAUCUUCUGUUGAUAUGGAUGCAGUUCACAGACUAAAUGUCGGUCGGGGAAGAUGUAUUCUUCUCAUAAGAUAUAGUCGGACCUCUCCUUAAUGGGAGCUAGCGGAUGAAGUGAUGCAACACUGGAGCCGCUGGGAACUAAUUUGUAUGCGAAAGUAUAUUGAUUAGUUUUGGAGUACUCGUGGUCG
Method in brief: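 Pooled colonies went to amplicon sequencing on an Illumina HiSeq 2500 after six replicate transformations. The plates were LB agar with 100 μg/mL carbenicillin, 50 μM IPTG and 0.2% rhamnose, with or without 25 μg/mL kanamycin, incubated overnight at 37°C or 30°C. The E. coli BL21(DE3) library had all eight P1ex-region intron nucleotides randomised, the intron placed in the knt kanamycin-resistance gene on pET-22b(+). DiMSum fitness is the error-weighted combination of replicate fold changes, kanamycin against none, normalised to wild type.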

Sequence	self-splicing fitness (ln) (30 °C)	self-splicing fitness (ln) (37 °C)
ACUUAGCAAUAUUACGGCCA	-0.83 ± 0.13	-0.409 ± 0.19
ACUUAGCAAUAUUACGGUUA	-1.27 ± 0.17	-0.752 ± 0.15
ACUUAGCAAUAUUACGUAAA	-2.37 ± 0.2	-0.419 ± 0.2
ACUUAGCAAUAUUACGUACG	-1.45 ± 0.099	-1.04 ± 0.13
ACUUAGCAAUAUUACGUAGA	-3.26 ± 0.13	-1.59 ± 0.11
ACUUAGCAAUAUUACGUCGG	-2.34 ± 0.14	-1.59 ± 0.17
ACUUAGCAAUAUUACGUGAU	-2.53 ± 0.1	-1.37 ± 0.1
ACUUAGCAAUAUUACGUGGC	-2.83 ± 0.16	-2.85 ± 0.29
AGAAAGCAAUAUUACGAACC	-1.29 ± 0.17	-0.276 ± 0.13
AGAAAGCAAUAUUACGAGGG	-2.8 ± 0.21	-2.61 ± 0.36
AGAAAGCAAUAUUACGAUGC	-2.16 ± 0.14	-1.38 ± 0.13
AGAAAGCAAUAUUACGCACA	-0.139 ± 0.1	-0.236 ± 0.12
AGAAAGCAAUAUUACGCACU	-0.82 ± 0.15	-1.17 ± 0.18
AGAAAGCAAUAUUACGCCUC	-1.37 ± 0.17	-0.948 ± 0.23
AGAAAGCAAUAUUACGCGAA	-1.95 ± 0.13	-1.08 ± 0.16
AGAAAGCAAUAUUACGCGCA	-0.218 ± 0.094	0.174 ± 0.11
AGAAAGCAAUAUUACGCGUU	-2.71 ± 0.16	-2.34 ± 0.17
AGAAAGCAAUAUUACGCUAG	-3.32 ± 0.22	-2.65 ± 0.21
AGAAAGCAAUAUUACGCUCU	-3.2 ± 0.37	-2.58 ± 0.49
AGAAAGCAAUAUUACGCUUC	-1.58 ± 0.27	-2.22 ± 0.39
AGAAAGCAAUAUUACGGAAA	-1.63 ± 0.14	-1.33 ± 0.15
AGAAAGCAAUAUUACGGAUU	-2.21 ± 0.14	-0.867 ± 0.16
AGAAAGCAAUAUUACGGGGU	-3.8 ± 0.22	-2.34 ± 0.23
AGAAAGCAAUAUUACGGUAC	-3.29 ± 0.32	-1.67 ± 0.23
AGAAAGCAAUAUUACGUAAA	-2.15 ± 0.12	-1.88 ± 0.14

Sequence	self-splicing fitness (ln) (30 °C)	self-splicing fitness (ln) (37 °C)
AGAAAGCAAUAUUACGUAAG	-1.61 ± 0.084	-0.0907 ± 0.095
AGAAAGCAAUAUUACGUGGU	-4.26 ± 0.29	-2.41 ± 0.16
AGACAGCAAUAUUACGACUC	-2.28 ± 0.18	-0.623 ± 0.2
AGACAGCAAUAUUACGAGGU	-3.46 ± 0.16	-1.87 ± 0.13
AGACAGCAAUAUUACGAUCU	-2.62 ± 0.12	-0.863 ± 0.1
AGACAGCAAUAUUACGCGGC	-3.51 ± 0.24	-2.15 ± 0.21
AGACAGCAAUAUUACGCGUA	-1.43 ± 0.084	-0.867 ± 0.074
AGACAGCAAUAUUACGGAAA	-3.32 ± 0.26	-1.48 ± 0.13
AGACAGCAAUAUUACGGAUU	-2.55 ± 0.088	-1.45 ± 0.089
AGACAGCAAUAUUACGGCCG	-1.26 ± 0.078	-0.403 ± 0.12
AGACAGCAAUAUUACGGCGA	-0.438 ± 0.069	-0.143 ± 0.083
AGACAGCAAUAUUACGGGAG	-3.93 ± 0.16	-2.89 ± 0.17
AGACAGCAAUAUUACGGGCU	-1.78 ± 0.11	-0.732 ± 0.13
AGACAGCAAUAUUACGGGUU	-1.96 ± 0.1	-1.12 ± 0.12
AGACAGCAAUAUUACGGUAU	-2.55 ± 0.1	-0.734 ± 0.091
AGACAGCAAUAUUACGGUCU	-3.78 ± 0.23	-2.48 ± 0.25
AGACAGCAAUAUUACGGUGA	-1.49 ± 0.074	-0.921 ± 0.095
AGACAGCAAUAUUACGUAGA	-2.6 ± 0.081	-2.5 ± 0.11
AGACAGCAAUAUUACGUAGG	-2.6 ± 0.11	-1.28 ± 0.11
AGACAGCAAUAUUACGUUCU	-3.7 ± 0.18	-3.16 ± 0.21
AGAGAGCAAUAUUACGAACC	-2.98 ± 0.39	-1.57 ± 0.38
AGAGAGCAAUAUUACGAAGG	-3.13 ± 0.39	-1.42 ± 0.37
AGAGAGCAAUAUUACGAGUA	–	-2.01 ± 0.45
AGAGAGCAAUAUUACGAUUG	-3.12 ± 0.25	-2.88 ± 0.35
AGAGAGCAAUAUUACGCAAG	-3.46 ± 0.3	-2.29 ± 0.3

Sequence	self-splicing fitness (ln) (30 °C)	self-splicing fitness (ln) (37 °C)
AGAGAGCAAUAUUACGCGAG	-2.97 ± 0.34	–
AGAGAGCAAUAUUACGCGUA	-2.46 ± 0.27	-2.08 ± 0.48
AGAGAGCAAUAUUACGCGUC	-2.64 ± 0.36	-0.28 ± 0.28
AGAGAGCAAUAUUACGCGUU	-2.09 ± 0.4	–
AGAGAGCAAUAUUACGCUAG	-2.84 ± 0.28	-2.91 ± 0.38
AGAGAGCAAUAUUACGCUCU	-2.47 ± 0.47	–
AGAGAGCAAUAUUACGGAAC	-2.74 ± 0.38	-1.83 ± 0.4
AGAGAGCAAUAUUACGGCUG	-0.227 ± 0.24	-2.26 ± 0.49
AGAGAGCAAUAUUACGGGAG	-2.6 ± 0.4	–
AGAGAGCAAUAUUACGGGUG	-3.31 ± 0.32	–
AGAGAGCAAUAUUACGUACC	-1.69 ± 0.28	-0.0438 ± 0.38
AGAGAGCAAUAUUACGUAUU	-4.03 ± 0.35	-3.1 ± 0.3
AGAGAGCAAUAUUACGUGCG	-1.98 ± 0.16	-1.79 ± 0.26
AGAGAGCAAUAUUACGUGGA	-3.15 ± 0.4	-2.3 ± 0.5
AGAGAGCAAUAUUACGUUAC	-2.67 ± 0.22	-2.19 ± 0.42
AGAGAGCAAUAUUACGUUGU	-3.79 ± 0.21	-3.07 ± 0.2
AGAUAGCAAUAUUACGAACA	-1.15 ± 0.11	-0.00294 ± 0.12
AGAUAGCAAUAUUACGACGA	-0.422 ± 0.095	-0.749 ± 0.085
AGAUAGCAAUAUUACGACUU	-0.125 ± 0.065	-0.304 ± 0.086
AGAUAGCAAUAUUACGAUCU	-1.53 ± 0.14	-0.462 ± 0.17
AGAUAGCAAUAUUACGCGAU	-2.53 ± 0.25	-2.15 ± 0.27
AGAUAGCAAUAUUACGCGUA	-1.2 ± 0.12	-1.41 ± 0.13
AGAUAGCAAUAUUACGCUCG	-0.0589 ± 0.11	-0.37 ± 0.12
AGAUAGCAAUAUUACGCUCU	-3.31 ± 0.23	-1.46 ± 0.21
AGAUAGCAAUAUUACGGAUG	-2.96 ± 0.19	-2.3 ± 0.28

Sequence	self-splicing fitness (ln) (30 °C)	self-splicing fitness (ln) (37 °C)
AGAUAGCAAUAUUACGGCGA	-0.537 ± 0.14	-0.0635 ± 0.14
AGAUAGCAAUAUUACGGCGG	-0.92 ± 0.12	-1.04 ± 0.15
AGAUAGCAAUAUUACGGCUC	-1.14 ± 0.32	-0.656 ± 0.37
AGAUAGCAAUAUUACGGGGU	-3.5 ± 0.16	-2.26 ± 0.13
AGAUAGCAAUAUUACGGUAG	-3.93 ± 0.37	-1.69 ± 0.21
AGAUAGCAAUAUUACGUACA	-1.26 ± 0.055	-0.0902 ± 0.08
AGAUAGCAAUAUUACGUCAC	-1.17 ± 0.27	-2.78 ± 0.48
AGAUAGCAAUAUUACGUCCA	0.498 ± 0.11	0.122 ± 0.18
AGAUAGCAAUAUUACGUGCU	-1.39 ± 0.1	-0.664 ± 0.12
AGAUAGCAAUAUUACGUGGG	-2.85 ± 0.15	-2.49 ± 0.19
AGAUAGCAAUAUUACGUGUA	-2.9 ± 0.14	-1.82 ± 0.12
AGAUAGCAAUAUUACGUUGU	-2.26 ± 0.08	-2.39 ± 0.11
AGCAAGCAAUAUUACGCCAA	-2.89 ± 0.2	-1.97 ± 0.14
AGCAAGCAAUAUUACGCCCA	-0.157 ± 0.17	-0.704 ± 0.22
AGCAAGCAAUAUUACGCGUG	-3.87 ± 0.19	-3.49 ± 0.27
AGCAAGCAAUAUUACGCUCA	-2.66 ± 0.18	-1.69 ± 0.15
AGCAAGCAAUAUUACGCUUC	–	-3.29 ± 0.42
AGCAAGCAAUAUUACGGCCG	-0.219 ± 0.071	-0.111 ± 0.094
AGCAAGCAAUAUUACGGCUU	-3.17 ± 0.18	-0.891 ± 0.12
AGCAAGCAAUAUUACGGGCC	-3.26 ± 0.23	-2.32 ± 0.22
AGCAAGCAAUAUUACGGGCG	-0.538 ± 0.061	-0.377 ± 0.074
AGCAAGCAAUAUUACGGGGU	-2.45 ± 0.15	-2 ± 0.12
